The values below come from PMC5069464.

Holding throughout (conditions): glycan lost; control: wild type
Data set [1] is described as follows: high-throughput patch (IonWorks Barracuda), peak current.
The nature of data set [2]: puromycin chase, >250 kDa band at 48 hr.
Data set [3] is described as follows: whole-cell tail currents, Boltzmann fit.
The nature of data set [4]: whole-cell pre-pulse protocol, Boltzmann fit.
Data set [5] can be described thus: cell-attached single-channel recording, tsA201.

hCaV3.3 α1 subunit: R1346H: the “other: channel current, other: median peak current” value in data set [1] was “decreases, 0.56 vs 1.30”. In addition, in data set [2], the “degradation_or_half_life, other: fraction of pre-puromycin level” value was “no change, 0.50 ± 0.12 vs 0.36 ± 0.08”. Also, in data set [3], the “other: voltage dependence of activation, other: V1/2-negative” value is “no change, −37.6 ± 0.99 vs −40.0 ± 0.98”. In addition, the “other: voltage dependence of inactivation, other: V1/2” value in data set [4] is “no change, −69.4 ± 1.4 vs −67.1 ± 0.89”. The “other: single-channel conductance, other: conductance” value in data set [5] is “no change, 13.7 ± 0.6 vs 14.0 ± 0.8”.
